One test deals with VEGF165 (UniProt P15692). The experiment in a line: SPR (Biacore T100, 25 C); binder captured on anti-human IgG CM5 chip, VEGF165 as analyte. On the technique in general: In SPR one partner is held on a chip, and binding of the other changes the refractive index at the surface.
The target in test [1] is recombinant human CD28 (human) (UniProt P10747). The experiment in a line: ELISA; CD28 coated at 100 ng/ml, fusion protein titrated, anti-human IgG Fc-HRP. A general note: An ELISA detects its analyte on a solid surface through an enzyme-linked reagent.

Chain of VEGF165 (P15692 other isoform, or with tags, fused parts or gaps limits assumed): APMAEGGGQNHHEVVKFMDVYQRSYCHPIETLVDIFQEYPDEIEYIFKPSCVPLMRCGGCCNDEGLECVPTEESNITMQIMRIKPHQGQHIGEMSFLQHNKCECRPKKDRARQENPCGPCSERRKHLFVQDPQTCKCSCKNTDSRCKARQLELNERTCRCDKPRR
Chain of control protein 301-8 (aflibercept) (Fc fusion) (chain): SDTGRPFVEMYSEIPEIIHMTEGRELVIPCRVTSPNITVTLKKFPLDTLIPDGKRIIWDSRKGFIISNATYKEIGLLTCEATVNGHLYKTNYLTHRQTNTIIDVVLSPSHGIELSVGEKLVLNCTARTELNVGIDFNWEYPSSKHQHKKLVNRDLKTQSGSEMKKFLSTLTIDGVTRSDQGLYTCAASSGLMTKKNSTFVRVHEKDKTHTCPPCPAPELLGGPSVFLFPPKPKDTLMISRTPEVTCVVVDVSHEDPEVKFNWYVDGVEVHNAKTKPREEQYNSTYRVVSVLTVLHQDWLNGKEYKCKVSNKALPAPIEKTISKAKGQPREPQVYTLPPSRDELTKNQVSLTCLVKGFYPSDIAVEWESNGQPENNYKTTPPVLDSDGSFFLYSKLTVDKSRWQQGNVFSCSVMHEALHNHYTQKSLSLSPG
Chain of fusion protein BY24.30 (Fc-hCD80, IgG4) (Fc fusion) (chain): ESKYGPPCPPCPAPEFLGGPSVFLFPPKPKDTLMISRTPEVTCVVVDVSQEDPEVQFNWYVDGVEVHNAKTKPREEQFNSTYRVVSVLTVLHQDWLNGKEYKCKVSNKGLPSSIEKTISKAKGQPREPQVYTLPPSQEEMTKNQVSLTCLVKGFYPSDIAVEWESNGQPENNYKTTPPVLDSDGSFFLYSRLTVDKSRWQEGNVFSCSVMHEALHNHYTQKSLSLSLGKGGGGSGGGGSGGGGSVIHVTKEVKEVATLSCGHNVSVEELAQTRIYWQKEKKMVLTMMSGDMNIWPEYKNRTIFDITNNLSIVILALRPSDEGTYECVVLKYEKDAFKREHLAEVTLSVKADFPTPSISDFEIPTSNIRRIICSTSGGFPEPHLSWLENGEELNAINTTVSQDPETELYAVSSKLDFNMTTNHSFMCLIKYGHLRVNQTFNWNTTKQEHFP
Chain of fusion protein BY24.23 (hCD80-Fc, IgG4) (Fc fusion) (chain): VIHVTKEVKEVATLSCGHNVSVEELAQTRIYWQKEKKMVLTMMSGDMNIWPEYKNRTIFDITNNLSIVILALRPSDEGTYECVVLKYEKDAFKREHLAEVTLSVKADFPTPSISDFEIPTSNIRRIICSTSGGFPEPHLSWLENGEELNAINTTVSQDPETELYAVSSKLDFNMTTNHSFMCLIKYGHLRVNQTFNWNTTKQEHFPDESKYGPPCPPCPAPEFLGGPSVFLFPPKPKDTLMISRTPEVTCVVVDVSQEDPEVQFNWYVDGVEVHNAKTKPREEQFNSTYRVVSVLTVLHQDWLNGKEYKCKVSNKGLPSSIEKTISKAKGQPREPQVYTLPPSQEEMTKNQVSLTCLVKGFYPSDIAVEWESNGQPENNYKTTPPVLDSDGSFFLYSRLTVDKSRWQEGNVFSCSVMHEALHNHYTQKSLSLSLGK

For the substance “control protein 301-8 (aflibercept) (Fc fusion)”, in the test with VEGF165, the Kd (usually the constant that tells how readily two partners part at equilibrium) came to 7.35 pM; the off-rate constant (koff) (in general, a measure of how fast the partners let go of each other) came out at 4.33e-05 s⁻¹; the on-rate (kon) (in general, the second-order rate constant of association) came out at 5.89e+06 M⁻¹ s⁻¹.

For “fusion protein BY24.30 (Fc-hCD80, IgG4) (Fc fusion)”, in test [1], the EC50 (commonly the concentration at which the effect is half-maximal) is 0.97 µg/mL. Turning to “fusion protein BY24.23 (hCD80-Fc, IgG4) (Fc fusion)”, the EC50 in test [1] came out at 6.2 µg/mL.

The record behind these values is patent US20230235011A1.
